# According to US10941182 (Amgen, dated 2021):
# Starred links: 1 amine or outer side, 2 acyl side, 3 side chain; linkers in the order of their positions; H or OH if unused. Non-standard residues stand in square brackets, D forms with d. *: point of attachment. AC4Abu = α-carboxy-4-aminobutyric acid, O=C(C(CCN[*:1])C(=O)[*:3])[*:2]; Phe(4-Cl) = N[C@@H](Cc1ccc(Cl)cc1)C(=O)O; NMeR = CN[C@@H](CCCNC(=N)N)C(=O)O; Palmitoyl = CCCCCCCCCCCCCCCC(=O)*; β3hF = N[C@H](CC(=O)O)Cc1ccccc1; Cha = N[C@@H](CC1CCCCC1)C(=O)O; Aic = NC1(C(=O)O)Cc2ccccc2C1; Pip = O=C(O)[C@@H]1CCCCN1; Nle = CCCC[C@H](N)C(=O)O; AEEA = NCCOCCOCC(=O)O; Aib = CC(C)(N)C(=O)O; Inp = O=C(O)C1CCNCC1; Nip = nipecotic acid
# T1: human APJ receptor (human, UniProt P35414 1-380)
# T1 sequence (looked up): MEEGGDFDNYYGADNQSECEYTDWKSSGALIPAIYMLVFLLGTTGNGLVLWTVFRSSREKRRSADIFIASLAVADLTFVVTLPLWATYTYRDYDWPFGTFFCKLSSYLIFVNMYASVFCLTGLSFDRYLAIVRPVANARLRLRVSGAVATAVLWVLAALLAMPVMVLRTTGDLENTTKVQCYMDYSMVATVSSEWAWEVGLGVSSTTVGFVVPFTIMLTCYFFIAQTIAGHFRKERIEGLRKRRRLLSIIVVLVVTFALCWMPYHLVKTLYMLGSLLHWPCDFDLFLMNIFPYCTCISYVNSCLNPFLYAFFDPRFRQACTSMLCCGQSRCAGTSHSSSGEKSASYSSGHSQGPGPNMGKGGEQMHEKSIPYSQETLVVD
# T2: rat APJ receptor (rat, UniProt Q9JHG3 1-377)
# T2 sequence (looked up): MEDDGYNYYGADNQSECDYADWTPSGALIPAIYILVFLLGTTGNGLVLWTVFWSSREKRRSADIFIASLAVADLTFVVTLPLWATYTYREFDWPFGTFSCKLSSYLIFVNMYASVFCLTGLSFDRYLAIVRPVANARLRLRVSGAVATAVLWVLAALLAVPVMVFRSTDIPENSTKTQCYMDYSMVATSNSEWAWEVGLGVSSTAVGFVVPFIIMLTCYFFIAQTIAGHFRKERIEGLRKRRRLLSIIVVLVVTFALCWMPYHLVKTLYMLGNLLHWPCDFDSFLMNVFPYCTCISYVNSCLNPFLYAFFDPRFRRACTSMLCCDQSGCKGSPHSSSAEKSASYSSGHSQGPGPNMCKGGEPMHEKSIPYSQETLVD
# B1: SEQ ID NO: 579 (peptide)
# peptide: Palmitoyl-[AC4Abu][AEEA][AEEA][dQ]RP[NMeR][Cha]SHKG[Pip][Nle][β3hF]-OH
# SMILES: CCCCCCCCCCCCCCCC(=O)NCCC(C(=O)O)C(=O)NCCOCCOCC(=O)NCCOCCOCC(=O)N[C@H](CCC(N)=O)C(=O)N[C@@H](CCCNC(=N)N)C(=O)N1CCC[C@H]1C(=O)N(C)[C@@H](CCCNC(=N)N)C(=O)N[C@@H](CC1CCCCC1)C(=O)N[C@@H](CO)C(=O)N[C@@H](Cc1c[nH]cn1)C(=O)N[C@@H](CCCCN)C(=O)NCC(=O)N1CCCC[C@H]1C(=O)N[C@@H](CCCC)C(=O)N[C@H](CC(=O)O)Cc1ccccc1
# B2: SEQ ID NO: 590 (peptide)
# peptide: Palmitoyl-[AC4Abu][AEEA][AEEA][dQ]RP[NMeR][Cha]SHKG[Pip][Nle]P[Aic]-OH
# SMILES: CCCCCCCCCCCCCCCC(=O)NCCC(C(=O)O)C(=O)NCCOCCOCC(=O)NCCOCCOCC(=O)N[C@H](CCC(N)=O)C(=O)N[C@@H](CCCNC(=N)N)C(=O)N1CCC[C@H]1C(=O)N(C)[C@@H](CCCNC(=N)N)C(=O)N[C@@H](CC1CCCCC1)C(=O)N[C@@H](CO)C(=O)N[C@@H](Cc1c[nH]cn1)C(=O)N[C@@H](CCCCN)C(=O)NCC(=O)N1CCCC[C@H]1C(=O)N[C@@H](CCCC)C(=O)N1CCC[C@H]1C(=O)NC1(C(=O)O)Cc2ccccc2C1
# B3: SEQ ID NO: 589 (peptide)
# peptide: Palmitoyl-[AC4Abu][AEEA][AEEA]QRP[NMeR][Cha]SHKG[Pip][Nle][Inp][Phe(4-Cl)]-OH
# SMILES: CCCCCCCCCCCCCCCC(=O)NCCC(C(=O)O)C(=O)NCCOCCOCC(=O)NCCOCCOCC(=O)N[C@@H](CCC(N)=O)C(=O)N[C@@H](CCCNC(=N)N)C(=O)N1CCC[C@H]1C(=O)N(C)[C@@H](CCCNC(=N)N)C(=O)N[C@@H](CC1CCCCC1)C(=O)N[C@@H](CO)C(=O)N[C@@H](Cc1c[nH]cn1)C(=O)N[C@@H](CCCCN)C(=O)NCC(=O)N1CCCC[C@H]1C(=O)N[C@@H](CCCC)C(=O)N1CCC(C(=O)N[C@@H](Cc2ccc(Cl)cc2)C(=O)O)CC1
# B4: SEQ ID NO: 581 (peptide)
# peptide: Palmitoyl-[AC4Abu][AEEA][AEEA][dQ]RP[NMeR][Cha]SHKG[Pip][Aib][Phe(4-Cl)]-OH
# SMILES: CCCCCCCCCCCCCCCC(=O)NCCC(C(=O)O)C(=O)NCCOCCOCC(=O)NCCOCCOCC(=O)N[C@H](CCC(N)=O)C(=O)N[C@@H](CCCNC(=N)N)C(=O)N1CCC[C@H]1C(=O)N(C)[C@@H](CCCNC(=N)N)C(=O)N[C@@H](CC1CCCCC1)C(=O)N[C@@H](CO)C(=O)N[C@@H](Cc1c[nH]cn1)C(=O)N[C@@H](CCCCN)C(=O)NCC(=O)N1CCCC[C@H]1C(=O)NC(C)(C)C(=O)N[C@@H](Cc1ccc(Cl)cc1)C(=O)O
# B5: SEQ ID NO: 597 (peptide)
# peptide: Palmitoyl-[AC4Abu][AEEA][AEEA][dQ]RP[NMeR][Cha]SHKG[Pip][Nle][Aic]-OH
# SMILES: CCCCCCCCCCCCCCCC(=O)NCCC(C(=O)O)C(=O)NCCOCCOCC(=O)NCCOCCOCC(=O)N[C@H](CCC(N)=O)C(=O)N[C@@H](CCCNC(=N)N)C(=O)N1CCC[C@H]1C(=O)N(C)[C@@H](CCCNC(=N)N)C(=O)N[C@@H](CC1CCCCC1)C(=O)N[C@@H](CO)C(=O)N[C@@H](Cc1c[nH]cn1)C(=O)N[C@@H](CCCCN)C(=O)NCC(=O)N1CCCC[C@H]1C(=O)N[C@@H](CCCC)C(=O)NC1(C(=O)O)Cc2ccccc2C1
# Target: T1, human APJ receptor
# Experiment: cell-based or functional assay
row,Binder,EC50 Human APJ Receptor [nM]
1,B1,0.831
2,Palmitoyl-[AC4Abu][AEEA][AEEA][dQ]RP[NMeR][Cha]SHKG[Pip][Nle][Nip][Phe(4-Cl)]-OH [SEQ ID NO: 588],1.52
3,B2,0.816
4,B3,0.624
5,B4,1.4
6,B5,0.885

# Target: T2, rat APJ receptor
# Experiment: cell-based or functional assay
row,Binder,EC50 Rat APJ Receptor [nM]
1,B1,2.5
2,Palmitoyl-[AC4Abu][AEEA][AEEA][dQ]RP[NMeR][Cha]SHKG[Pip][Nle][Nip][Phe(4-Cl)]-OH [SEQ ID NO: 588],6.37
3,B2,6.2
4,B3,4.15
5,B4,5.85
6,B5,3.37
